Patent US20190256846A1 (AGENCY FOR SCIENCE TECHNOLOGY AND RESEARCH, published 2019)

Columns and labels:
[1] = target: ErbB4 on MCF-7 cells (endogenous) (UniProt Q15303); assay: cell-based or functional assay
[2] = target: T1, ErbB4 mutant lacking the C-terminal PDZ binding motif (ErbB4 APBM) (UniProt Q15303 26-1308, limits assumed); assay: GST pull-down from lysates of overexpressing cells, Western blot with anti-ErbB4
T1 construct: The mutation is a triple alanine substitution of the last three residues, not a deletion; Present in HEK293 cell lysate; also called mutant with a disrupted PBM
T1 sequence (Q15303 other isoform, or with tags, fused parts or gaps mutant limits assumed): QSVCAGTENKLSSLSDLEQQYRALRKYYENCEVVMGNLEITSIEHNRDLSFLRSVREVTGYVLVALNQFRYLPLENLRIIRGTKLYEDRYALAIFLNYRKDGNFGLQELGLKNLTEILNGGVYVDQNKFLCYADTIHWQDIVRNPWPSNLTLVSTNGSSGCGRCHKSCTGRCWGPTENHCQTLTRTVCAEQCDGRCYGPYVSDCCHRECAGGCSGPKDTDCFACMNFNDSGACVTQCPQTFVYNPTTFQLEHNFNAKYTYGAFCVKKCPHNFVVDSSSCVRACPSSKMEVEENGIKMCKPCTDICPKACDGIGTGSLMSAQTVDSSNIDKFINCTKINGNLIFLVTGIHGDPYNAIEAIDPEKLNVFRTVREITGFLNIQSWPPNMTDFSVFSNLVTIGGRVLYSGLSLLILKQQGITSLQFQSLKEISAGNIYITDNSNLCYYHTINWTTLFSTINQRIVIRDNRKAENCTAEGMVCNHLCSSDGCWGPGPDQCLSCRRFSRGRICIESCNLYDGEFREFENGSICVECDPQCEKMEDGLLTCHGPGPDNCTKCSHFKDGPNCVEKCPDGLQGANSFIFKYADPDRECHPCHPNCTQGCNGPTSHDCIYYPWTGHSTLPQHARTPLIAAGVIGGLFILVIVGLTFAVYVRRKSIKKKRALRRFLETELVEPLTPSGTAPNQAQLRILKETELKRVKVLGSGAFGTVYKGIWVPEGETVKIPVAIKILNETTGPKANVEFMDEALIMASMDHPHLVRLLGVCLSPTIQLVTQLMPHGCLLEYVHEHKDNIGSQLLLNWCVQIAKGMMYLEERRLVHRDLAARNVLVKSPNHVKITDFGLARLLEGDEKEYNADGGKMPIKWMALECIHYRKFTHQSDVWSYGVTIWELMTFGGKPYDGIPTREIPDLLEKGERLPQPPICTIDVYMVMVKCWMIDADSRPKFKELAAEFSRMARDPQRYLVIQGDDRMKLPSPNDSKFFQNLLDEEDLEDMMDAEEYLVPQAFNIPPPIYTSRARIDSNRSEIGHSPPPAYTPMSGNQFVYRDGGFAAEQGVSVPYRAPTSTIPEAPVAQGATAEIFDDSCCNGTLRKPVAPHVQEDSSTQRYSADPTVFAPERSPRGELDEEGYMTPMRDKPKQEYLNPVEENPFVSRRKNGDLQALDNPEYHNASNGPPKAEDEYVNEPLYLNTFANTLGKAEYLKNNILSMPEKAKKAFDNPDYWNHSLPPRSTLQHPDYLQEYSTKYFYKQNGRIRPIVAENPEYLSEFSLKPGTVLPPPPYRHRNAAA
Method: ErbB4 and mutant was transfected into HEK293 cells using JetPrimePolyPlus transfection kit (PolyPlus Transfections) according to manufacturer's instructions. […] GST and GST ZO-1PDZ1-3 domain fusion proteins were generated, purified, and bound to Glutathione Sepharose-4B (GE Healthcare Life Sciences) using standard protocols. Bound proteins were quantified by SDS-PAGE by using known amounts of BSA as standards. 18 μl of GST beads were incubated with 1 μg of GST fusion proteins. Unbound proteins were removed by washing with ice cold PBS. 300 μg of the transfected cells were then added and incubated at 4° C. for 2 hr followed by washing 4 times with ice cold lysis buffer. The bound fractions were eluted with 4×SDS-PAGE sample buffer, separated by SDS PAGE, immunoblotted onto PVDF membranes and probed with Rabbit anti-ErbB4 antibodies.

Chain of ErbB4 on MCF-7 cells (endogenous) (Q15303 26-1308 limits assumed): as the sequence (Q15303 other isoform, or with tags, fused parts or gaps mutant limits assumed) above, with A1281T, A1282V, A1283V counted along it

| Molecule | Erk activation (Erk phosphorylation, Western blot) in Tjp1 shRNA MCF-7 cells, 15 min stimulation [1] | Erk activation (Erk phosphorylation, Western blot) in control shRNA MCF-7 cells, 15 min stimulation [1] | binding result [2] |
| --- | --- | --- | --- |
| human NRG-1 (Cell Signalling Technology, Cat. #5218) (from UniProt Q02297 177-241) (ligand) | 2.5 ng/mL | 50 to 100 ng/mL | – |
| GST fusion protein carrying the three PDZ domains of Tjp1 (GST-Tjp1 PDZ1-3) (other, human, UniProt Q07157 1-503, looked up, domain: PDZ 1-3 domains; also called GST ZO-1PDZ1-3 domain fusion protein; ZO-1 (Tjp1) PDZ domains; not shown: glutathione S-transferase (GST) tag encoded by the pGEX 4T-1 vector) MSARAAAAKSTAMEETAIWEQHTVTLHRAPGFGFGIAISGGRDNPHFQSGETSIVISDVLKGGPAEGQLQENDRVAMVNGVSMDNVEHAFAVQQLRKSGKNAKITIRRKKKVQIPVSRPDPEPVSDNEEDSYDEEIHDPRSGRSGVVNRRSEKIWPRDRSASRERSLSPRSDRRSVASSQPAKPTKVTLVKSRKNEEYGLRLASHIFVKEISQDSLAARDGNIQEGDVVLKINGTVTENMSLTDAKTLIERSKGKLKMVVQRDERATLLNVPDLSDSIHSANASERDDISEIQSLASDHSGRSHDRPPRRSRSRSPDQRSEPSDHSRHSPQQPSNGSLRSRDEERISKPGAVSTPVKHADDHTPKTVEEVTVERNEKQTPSLPEPKPVYAQVGQPDVDLPVSPSDGVLPNSTHEDGILRPSMKLVKFRKGDSVGLRLAGGNDVGIFVAGVLEDSPAAKEGLEEGDQILRVNNVDFTNIIREEAVLFLLDLPKGEEVTILAQKK | – | – | no binding |
